Laboratory results from US20060257938A1, “Method of screening for drugs that block ligand binding to a lipid binding protein” (priority 2005, published 2006).

Key:
Assay type in all cases: binding
[1] = Probe fluorescence ratio response to arachidonic acid relative to ADIFAB2; details: arachidonic acid; response relative to ADIFAB2
Method in brief: (§1)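 Fluorescently labeled rat intestinal FABP variants were read at two emission wavelengths, near the unbound maximum (about 420 to 480 nm) and the FFA-bound maximum (about 495 to 580 nm). R = Fλ1/Fλ2 after subtracting probe-free intensity; ΔR = R+agent − R0, normalized to ADIFAB2 (rI-FABP-L72A).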

[2] = Probe fluorescence ratio response to linolenic acid relative to ADIFAB2; details: response relative to ADIFAB2
Method in brief: as §1

[3] = Probe fluorescence ratio response to linoleic acid relative to ADIFAB2; details: response relative to ADIFAB2
Method in brief: as §1

[4] = Probe fluorescence ratio response to oleic acid relative to ADIFAB2; details: response relative to ADIFAB2
Method in brief: as §1

[5] = Probe fluorescence ratio response to palmitic acid relative to ADIFAB2; details: response relative to ADIFAB2
Method in brief: as §1

[6] = Probe fluorescence ratio response to palmitoleic acid relative to ADIFAB2; details: response relative to ADIFAB2
Method in brief: as §1

[7] = Probe fluorescence ratio response to stearic acid relative to ADIFAB2; details: response relative to ADIFAB2
Method in brief: as §1

Row | Molecule | DR/DR AA [1] | DR/DR LNA [2] | DR/DR LA [3] | DR/DR OA [4] | DR/DR PA [5] | DR/DR POA [6] | DR/DR SA [7]
1 | 14Q 18L 31A 73W 117V 72A (protein, listed as Rattus norvegicus, PEPTIDE (1)...(131) wild-type rat intestinal fatty acid binding protein) AFDGTWKVDRNENQEKFLEKMGINVVKRKLAAHDNLKLTITQEGNKFTVKESSNFRNIDVVFELGVDFAYSAWDGTELTGTWTMEGNKLVGKFKRVDNGKELIAVREISGNELIQTVTYEGVEAKRIFKKE | 1.558 | 1.958 | 1.942 | 1.478 | 1.084 | 2.008 | 0.384
2 | 72I 73W 74N (protein, listed as Rattus norvegicus, PEPTIDE (1)...(131) wild-type rat intestinal fatty acid binding protein) AFDGTWKVDRNENYEKFMEKMGINVVKRKLGAHDNLKLTITQEGNKFTVKESSNFRNIDVVFELGVDFAYSIWNGTELTGTWTMEGNKLVGKFKRVDNGKELIAVREISGNELIQTYTYEGVEAKRIFKKE | 0.791 | 1.794 | 1.194 | 0.779 | 2.091 | 3.236 | 0.329
3 | 73F 72A (protein, listed as Rattus norvegicus, PEPTIDE (1)...(131) wild-type rat intestinal fatty acid binding protein) AFDGTWKVDRNENYEKFMEKMGINVVKRKLGAHDNLKLTITQEGNKFTVKESSNFRNIDVVFELGVDFAYSAFDGTELTGTWTMEGNKLVGKFKRVDNGKELIAVREISGNELIQTYTYEGVEAKRIFKKE | 1.051 | 1.775 | 1.171 | 0.630 | 1.118 | 2.381 | 0.399
4 | 18I 31V 73G 72A (protein, listed as Rattus norvegicus, PEPTIDE (1)...(131) wild-type rat intestinal fatty acid binding protein) AFDGTWKVDRNENYEKFIEKMGINVVKRKLVAHDNLKLTITQEGNKFTVKESSNFRNIDVVFELGVDFAYSAGDGTELTGTWTMEGNKLVGKFKRVDNGKELIAVREISGNELIQTYTYEGVEAKRIFKKE | 1.348 | 1.946 | 1.715 | 0.968 | 1.630 | 2.122 | 0.543
5 | 18V 31A 55W 73W 72A (protein, listed as Rattus norvegicus, PEPTIDE (1)...(131) wild-type rat intestinal fatty acid binding protein) AFDGTWKVDRNENYEKFVEKMGINVVKRKLAAHDNLKLTITQEGNKFTVKESSNWRNIDVVFELGVDFAYSAWDGTELTGTWTMEGNKLVGKFKRVDNGKELIAVREISGNELIQTYTYEGVEAKRIFKKE | 1.130 | 1.887 | 1.555 | 0.913 | 1.505 | 2.042 | 0.392
6 | 18I 31I 55M 73I 72A (protein, listed as Rattus norvegicus, PEPTIDE (1)...(131) wild-type rat intestinal fatty acid binding protein) AFDGTWKVDRNENYEKFIEKMGINVVKRKLIAHDNLKLTITQEGNKFTVKESSNMRNIDVVFELGVDFAYSAIDGTELTGTWTMEGNKLVGKFKRVDNGKELIAVREISGNELIQTYTYEGVEAKRIFKKE | 1.354 | 1.803 | 1.516 | 0.822 | 1.546 | 1.903 | 0.382
